Target: recombinant PP5 (UniProt P53041)
Sequence (P53041 whole entry): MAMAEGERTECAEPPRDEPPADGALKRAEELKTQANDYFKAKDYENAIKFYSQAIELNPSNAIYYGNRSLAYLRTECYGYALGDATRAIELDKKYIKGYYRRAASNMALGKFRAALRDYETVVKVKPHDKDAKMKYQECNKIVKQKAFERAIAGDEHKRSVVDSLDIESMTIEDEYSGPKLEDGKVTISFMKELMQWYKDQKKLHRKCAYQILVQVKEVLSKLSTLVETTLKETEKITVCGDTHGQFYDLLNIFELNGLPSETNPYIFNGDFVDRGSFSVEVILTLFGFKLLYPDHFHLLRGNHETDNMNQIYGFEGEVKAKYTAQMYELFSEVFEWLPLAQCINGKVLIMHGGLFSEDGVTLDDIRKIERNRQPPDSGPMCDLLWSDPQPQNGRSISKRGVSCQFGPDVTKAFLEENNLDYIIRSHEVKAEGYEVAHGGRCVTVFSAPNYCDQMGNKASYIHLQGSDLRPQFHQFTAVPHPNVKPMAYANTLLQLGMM

Row | Substance | in vitro ubiquitylation of PP5 (immunoblot for PP5)
1 | recombinant Huwe1 C4341S mutant (Huwe1 C/S) | wild type recombinant Huwe1 protein, but not Huwe1(C/S), ubiquitylated recombinant PP5 in vitro
2 | recombinant Huwe1 wild type | in the presence of both E1 and E2, wild type recombinant Huwe1 protein, but not Huwe1(C/S), ubiquitylated recombinant PP5 in vitro
